Assay results published in PMC9104438, “Application of a Fluorescence Anisotropy-Based Assay to Quantify Transglutaminase 2 Activity in Cell Lysates” (International Journal of Molecular Sciences, 2022).

Columns and labels:
TGase 2 in cell lysates = molecular target: T1, TGase 2 in cell lysates (Homo sapiens, UniProt P21980); assay: FA-based assay of TGase 2 activity in cell lysates, control with inhibitor; type: biochemical, human and mouse; details: 10 µM inhibitor, preincubation 10 min; DMC 30 µM, R-I-Cad 0.81 µM; all studied cell lines
T1 construct: endogenous in cells; host or cells: lysates of 30 cell lines (27 human, 3 mouse), e.g. HUVEC, A375
T1 sequence (P21980 2-687 limits assumed): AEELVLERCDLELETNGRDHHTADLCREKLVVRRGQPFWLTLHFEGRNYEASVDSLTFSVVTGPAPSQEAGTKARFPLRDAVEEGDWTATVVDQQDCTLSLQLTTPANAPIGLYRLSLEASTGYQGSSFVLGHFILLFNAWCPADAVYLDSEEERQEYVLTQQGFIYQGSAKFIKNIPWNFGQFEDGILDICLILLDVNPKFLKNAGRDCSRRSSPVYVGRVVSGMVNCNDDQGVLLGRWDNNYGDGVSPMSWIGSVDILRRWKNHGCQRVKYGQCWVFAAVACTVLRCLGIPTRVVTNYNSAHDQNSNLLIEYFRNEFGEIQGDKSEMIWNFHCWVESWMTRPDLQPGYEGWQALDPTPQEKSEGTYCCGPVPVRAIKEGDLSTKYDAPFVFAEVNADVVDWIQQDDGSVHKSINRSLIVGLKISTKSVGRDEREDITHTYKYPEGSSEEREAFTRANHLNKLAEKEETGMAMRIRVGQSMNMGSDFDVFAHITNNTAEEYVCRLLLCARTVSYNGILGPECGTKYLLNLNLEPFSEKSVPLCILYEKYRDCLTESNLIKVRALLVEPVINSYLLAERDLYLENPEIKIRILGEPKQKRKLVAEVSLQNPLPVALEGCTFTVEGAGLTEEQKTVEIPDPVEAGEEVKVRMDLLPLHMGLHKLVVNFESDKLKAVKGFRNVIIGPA
Procedure: Lysis of cell pellets was performed as described recently. Accordingly, cell pellets were resuspended in 50 µL modified RIPA buffer A, incubated on ice for 30 min and applied to ultrasound (Bandelin Sonopuls, 2 × 15 s, 20% power at ambient temperature). Subsequently, cell lysates were incubated on ice for 10 min and were then spun for 15 min at 4 °C at 15,000× g. The supernatants were transferred into fresh tubes. The protein content was determined with a BCA protein assay (ThermoFisher, Waltham, MA, USA) according to the manufacturer’s protocol. Lysates were stored at −60 °C.

hTGase 1 = molecular target: T2, hTGase 1 (Homo sapiens, UniProt P22735); assay: FA-based assay, kinetic characterization of acyl donor DMC with R-I-Cad; type: biochemical; parameters: purchased Zedira T009; details: hTGase 1 2 µg/mL, R-I-Cad 0.74 µM, pH 8.0, 30 °C, mean (SEM)
T2 sequence (P22735 1-817): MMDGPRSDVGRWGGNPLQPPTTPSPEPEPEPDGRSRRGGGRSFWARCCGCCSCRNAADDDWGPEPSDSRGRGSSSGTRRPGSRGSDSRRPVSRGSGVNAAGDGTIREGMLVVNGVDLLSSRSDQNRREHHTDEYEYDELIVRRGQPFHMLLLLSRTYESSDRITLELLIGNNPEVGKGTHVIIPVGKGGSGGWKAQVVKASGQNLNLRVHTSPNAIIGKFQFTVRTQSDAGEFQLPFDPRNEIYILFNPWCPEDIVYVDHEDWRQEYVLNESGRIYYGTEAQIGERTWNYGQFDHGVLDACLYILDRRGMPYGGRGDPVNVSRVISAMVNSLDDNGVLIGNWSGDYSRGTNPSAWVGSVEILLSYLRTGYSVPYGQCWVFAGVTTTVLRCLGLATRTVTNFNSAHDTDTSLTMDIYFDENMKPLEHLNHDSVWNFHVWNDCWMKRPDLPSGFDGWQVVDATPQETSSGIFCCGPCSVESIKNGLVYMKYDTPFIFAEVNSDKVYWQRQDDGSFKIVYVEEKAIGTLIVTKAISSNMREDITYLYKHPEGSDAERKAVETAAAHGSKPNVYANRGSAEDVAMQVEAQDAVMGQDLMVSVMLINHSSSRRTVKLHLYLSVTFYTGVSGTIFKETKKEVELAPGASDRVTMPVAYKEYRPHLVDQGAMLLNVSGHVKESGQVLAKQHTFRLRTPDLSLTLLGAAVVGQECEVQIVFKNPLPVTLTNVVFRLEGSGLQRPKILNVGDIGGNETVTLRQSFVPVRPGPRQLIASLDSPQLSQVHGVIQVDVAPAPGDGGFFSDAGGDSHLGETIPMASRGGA
Procedure: (§1) For the kinetic characterization of DMC (Figure 1B) in the presence of a fixed concentration of R-I-Cad (0.74 µM), eight different concentrations of DMC (0.3–300 µM) were used (2–3 separate experiments, each performed in duplicate). The corresponding stock solutions of DMC and R-I-Cad were prepared in assay buffer A and DMSO, respectively. […] Values for Km, Ki and Vmax were calculated according to the equation of substrate inhibition (Equation (2)). (2) v=Vmax∗[S]/Km+[S]∗(1+[S]/Ki)

hFXIIIa = molecular target: T3, hFXIIIa (Homo sapiens, UniProt P00488); assay: as above; type: biochemical; parameters: purchased Zedira T070; details: hFXIIIa 5 µg/mL, R-I-Cad 0.74 µM, mean (SEM)
T3 sequence (P00488 39-732 limits assumed): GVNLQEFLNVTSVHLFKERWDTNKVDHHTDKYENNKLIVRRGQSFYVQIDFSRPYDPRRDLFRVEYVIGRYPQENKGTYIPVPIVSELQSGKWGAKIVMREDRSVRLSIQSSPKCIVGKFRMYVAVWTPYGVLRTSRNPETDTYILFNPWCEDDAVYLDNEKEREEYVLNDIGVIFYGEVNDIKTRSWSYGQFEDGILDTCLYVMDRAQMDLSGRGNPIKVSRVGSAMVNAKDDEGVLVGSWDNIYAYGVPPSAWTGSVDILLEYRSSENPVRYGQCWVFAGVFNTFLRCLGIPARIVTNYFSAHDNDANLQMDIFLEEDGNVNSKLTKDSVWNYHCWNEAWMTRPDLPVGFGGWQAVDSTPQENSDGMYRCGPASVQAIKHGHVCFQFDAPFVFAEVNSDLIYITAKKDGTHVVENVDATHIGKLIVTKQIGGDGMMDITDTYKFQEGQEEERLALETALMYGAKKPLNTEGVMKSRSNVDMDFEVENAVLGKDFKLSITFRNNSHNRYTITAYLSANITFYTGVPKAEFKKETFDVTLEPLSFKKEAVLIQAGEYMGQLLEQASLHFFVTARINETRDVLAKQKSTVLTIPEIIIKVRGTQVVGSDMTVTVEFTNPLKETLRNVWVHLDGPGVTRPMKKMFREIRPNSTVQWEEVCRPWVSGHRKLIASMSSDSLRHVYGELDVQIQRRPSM
Procedure: as §1

[1] = read-out: Ki (substrate inhibition)

Row | Molecule | FA increase over time in cell lysates in the presence of inhibitor (TGase 2 in cell lysates) | Vmax (hTGase 1; DMC 0.3–300 µM, 5% DMSO, 500 µM DTT) | Km (hTGase 1) [µM] | Ki (hTGase 1; [1]) [µM] | Km (hFXIIIa) [µM] | Ki (hFXIIIa; [1]) [µM] | Vmax (hFXIIIa; pH 8.0, 30 °C)
1 | C=CC(=O)NCCCC[C@H](NC(=O)Cc1ccccc1)C(=O)N1CCN(c2cccc(C)n2)CC1 [Compound 1] | below the detection limit | – | – | – | – | – | –
2 | N,N-dimethylated casein [DMC] | – | 121 (13) mA mL s^−1 mg^−1 | 8.77 | 270 | 17.5 | 135 | 16.0 (1.1) mA mL s^−1 mg^−1
